Assay [1] addresses I-A^d on NSO parental cells (untransfected negative control, H-2^d background) (mouse) (UniProt P04228). As to the kind of experiment: flow cytometry, FITC-conjugated AMS 32.1 1:100 on NSO (parental) cells. A general note: Flow cytometry measures light scatter and fluorescence of single cells or particles in a stream.
The target of assay [2] is membrane-bound single-chain I-A^d-OVA (SCT1 construct) on transfected NSO cells (mouse (I-A^d); chicken (OVA peptide)). As to the kind of experiment: flow cytometry, FITC-conjugated AMS 32.1 1:100 on T2 (SCT1-transfectant).
Assay [3] shares this target. As to the kind of experiment: flow cytometry, FITC-conjugated AMS 32.1 1:100 on T6 (SCT1-transfectant).
The target is the same in assay [4]. As to the kind of experiment: flow cytometry, FITC-conjugated AMS 32.1 1:100 on T12 (SCT1-transfectant).
Assay [5] has as its target soluble single-chain I-A^d-OVA with EE antibody tag (SCE1 construct) secreted by transfected NSO cells (mouse (I-A^d); chicken (OVA peptide)). As to the kind of experiment: sandwich ELISA of Example 18, M5/114 capture and biotinylated AMS-32.1 detection; undiluted culture supernatant of E11 (SCE1 transfectant).
The target of assay [6] is Neuron Specific Enolase (NSE), supernatant of SF9 cells infected with recombinant Baculovirus. As to the kind of experiment: sandwich ELISA, M5/114 capture and biotinylated AMS-32.1 detection; supernatant of SF9 cells infected with NSE Baculovirus (negative control). (ELISA stands for enzyme-linked immunosorbent assay.)
Assay [7] deals with soluble single-chain I-A^d-OVA from insect cells (SSC1 gene in pMBSC1.2, SF9 cells) (mouse (I-A^d); chicken (OVA peptide)). As to the kind of experiment: sandwich ELISA, M5/114 capture and biotinylated AMS-32.1 detection; supernatant of virus clone F8.
For assay [8] the target is unchanged. As to the kind of experiment: sandwich ELISA of Example 18, M5/114 capture and biotinylated AMS-32.1 detection; sc I-A^d-OVA from insect cell culture (positive control).
For assay [9] the target is unchanged. As to the kind of experiment: sandwich ELISA, M5/114 capture and biotinylated AMS-32.1 detection; cotransfection mix supernatant, diluted 1:2.
For assay [10] the target is unchanged. As to the kind of experiment: sandwich ELISA, M5/114 capture and biotinylated AMS-32.1 detection; supernatant of virus clone C6.
Assay [11] shares this target. As to the kind of experiment: sandwich ELISA, M5/114 capture and biotinylated AMS-32.1 detection; cotransfection mix supernatant, diluted 1:8.
For assay [12], the target named is soluble single-chain I-A^d-OVA with EE antibody tag (SCE1 construct) secreted by transfected NSO cells (mouse (I-A^d); chicken (OVA peptide)). As to the kind of experiment: sandwich ELISA of Example 18, M5/114 capture and biotinylated AMS-32.1 detection; undiluted culture supernatant of E10 (SCE1 transfectant).
For assay [13], the target named is soluble single-chain I-A^d-OVA from insect cells (SSC1 gene in pMBSC1.2, SF9 cells) (mouse (I-A^d); chicken (OVA peptide)). As to the kind of experiment: sandwich ELISA, M5/114 capture and biotinylated AMS-32.1 detection; cotransfection mix supernatant, undiluted.
Assay [14] has the same target. As to the kind of experiment: sandwich ELISA, M5/114 capture and biotinylated AMS-32.1 detection; cotransfection mix supernatant, diluted 1:4.
Assay [15] addresses I-A^d on NSO parental cells (untransfected negative control, H-2^d background) (mouse) (UniProt P04228). As to the kind of experiment: flow cytometry, FITC-conjugated 10-3.6 isotype control 1:100 on NSO (parental) cells.
The target in assay [16] is membrane-bound single-chain I-A^d-OVA (SCT1 construct) on transfected NSO cells (mouse (I-A^d); chicken (OVA peptide)). As to the kind of experiment: flow cytometry, FITC-conjugated 10-3.6 isotype control 1:100 on T12 (SCT1-transfectant).
Assay [17] shares this target. As to the kind of experiment: flow cytometry, FITC-conjugated 10-3.6 isotype control 1:100 on T2 (SCT1-transfectant).
For assay [18] the target is unchanged. As to the kind of experiment: flow cytometry, FITC-conjugated 10-3.6 isotype control 1:100 on T6 (SCT1-transfectant).
Assay [19] concerns the target T cell receptor of the murine T cell hybridoma DO11.10 (I-A^d restricted, OVA peptide 323-339 specific) (mouse). As to the kind of experiment: cell-based or functional assay.
The target is the same in assay [20]. As to the kind of experiment: cell-based or functional assay. The source holds these as a separate data set.

Like-named read-outs stand apart in the source and are kept apart here.

For the molecule “AMS-32.1 anti-IA^d (Pharmingen) (antibody)”, the Mean Fluorescence came out at 280 in [1], 613 in [2], 418 in assay [3] and 911 in assay [4].

Take “M5/114 (ATCC TIB 120) anti-IA^d (antibody)”: the Absorbance (405 nm) worked out at 0.96 absorbance in assay [5]; 0.098 absorbance in [6]; 1.45 absorbance in assay [7]; 2.44 absorbance in assay [8]; 0.524 absorbance in assay [9]; 1.56 absorbance in assay [10]. In addition, the Absorbance (405 nm) in assay [11] came out at 0.165 absorbance; in [12], 0.781 absorbance; in assay [13], 0.857 absorbance; in assay [14], 0.305 absorbance.

With “isotype matched FITC-conjugated anti-I-A^k antibody, 10-3.6 (PharMingen)”, the Mean Fluorescence in assay [15] came out at 32.1; in assay [16] it was 45.9; in [17], 22; in assay [18] it was 45.1.

B1: membrane-bound single-chain I-A^d-OVA (SCT1 construct) on transfected NSO cells (peptide-MHC)
chain: TMALQIPSLLLSAAVVVLMVLSSPRTLSISQAVHAAHAEINEAGRASGGGGSGGGGNSERHFVVQFKGECYYTNGTQRIRLVTRYIYNREEYVRYDSDVGEYRAVTELGRPDAEYWNSQPEILERTRAEVDTACRHNYEGPETSTSLRRLEQPNVAISLSRTEALNHHNTLVCSVTDFYPAKIKVRWFRNGQEETVGVSSTQLIRNGDWTFQVLVMLEMTPHQGEVYTCHVEHPSLKSPITVEWTSGGGGSGGGGSGGGGSGGGGSSSEDDIEADHVGFYGTTVYQSPGDIGQYTHEFDGDELFYVDLDKKKTVWRLPEFGQLILFEPQGGLQNIAAEKHNLGILTKRSNFTPATNEAPQATVFPKSPVLLGQPNTLICFVDNIFPPVINITWLRNSKSVTDGVYETSFLVNRDHSFHKLSYLTFIPSDDDIYDCKVEHWGLEEPVLKHWEPEIPAPMSELTETVVCALGLSVGLVGIVVGTIFIIQGLRSGGTSRHPGPL
With B1, the IL-2 ELISA result (Absorbance), DO11.10 with T12 (SCT1 transfectant) as antigen presenting cell in assay [19] stood at 1.03 Absorbance. In assay [20], this molecule returned an IL-2 ELISA result (Absorbance), DO11.10 with T2 (SCT1 transfectant) as antigen presenting cell of 0.758 Absorbance and an IL-2 ELISA result (Absorbance), DO11.10 with T6 (SCT1 transfectant) as antigen presenting cell of 0.307 Absorbance.

B2: I-A^d on NSO parental cells (untransfected negative control, H-2^d background) (protein, mouse)
MHC II alpha: EDDIEADHVGFYGTTVYQSPGDIGQYTHEFDGDELFYVDLDKKKTVWRLPEFGQLILFEPQGGLQNIAAEKHNLGILTKRSNFTPATNEAPQATVFPKSPVLLGQPNTLICFVDNIFPPVINITWLRNSKSVTDGVYETSFLVNRDHSFHKLSYLTFIPSDDDIYDCKVEHWGLEEPVLKHWEPEIPAPMSELTETVVCALGLSVGLVGIVVGTIFIIQGLRSGGTSRHPGPL
MHC II beta: GNSERHFVVQFKGECYYTNGTQRIRLVTRYIYNREEYVRYDSDVGEYRAVTELGRPDAEYWNSQPEILERTRAEVDTACRHNYEGPETSTSLRRLEQPNVAISLSRTEALNHHNTLVCSVTDFYPAKIKVRWFRNGQEETVGVSSTQLIRNGDWTFQVLVMLEMTPHQGEVYTCHVEHPSLKSPITVEWRAQSESARSKMLSGIGGCVLGVIFLGLGLFIRHRSQKGPRGPPPAGLLQ
Regarding B2, the IL-2 ELISA result (Absorbance), DO11.10 with NSO (parental cell line) as antigen presenting cell in [19] amounted to 0.078 Absorbance; in [20] it was 0.047 Absorbance.

B3: I-A^d on A20 cells with added OVA 323-339 peptide (peptide-MHC, mouse)
MHC II alpha: EDDIEADHVGFYGTTVYQSPGDIGQYTHEFDGDELFYVDLDKKKTVWRLPEFGQLILFEPQGGLQNIAAEKHNLGILTKRSNFTPATNEAPQATVFPKSPVLLGQPNTLICFVDNIFPPVINITWLRNSKSVTDGVYETSFLVNRDHSFHKLSYLTFIPSDDDIYDCKVEHWGLEEPVLKHWEPEIPAPMSELTETVVCALGLSVGLVGIVVGTIFIIQGLRSGGTSRHPGPL
MHC II beta: GNSERHFVVQFKGECYYTNGTQRIRLVTRYIYNREEYVRYDSDVGEYRAVTELGRPDAEYWNSQPEILERTRAEVDTACRHNYEGPETSTSLRRLEQPNVAISLSRTEALNHHNTLVCSVTDFYPAKIKVRWFRNGQEETVGVSSTQLIRNGDWTFQVLVMLEMTPHQGEVYTCHVEHPSLKSPITVEWRAQSESARSKMLSGIGGCVLGVIFLGLGLFIRHRSQKGPRGPPPAGLLQ
peptide: SISQAVHAAHAEINEAGR
Consider B3, for which the results for the IL-2 ELISA result (Absorbance), DO11.10 with A20 + OVA 323-339 peptide (positive control) in assay [19] and in assay [20] were 1.45 Absorbance and 1.33 Absorbance, respectively.

B4: soluble single-chain I-A^d-OVA from insect cells (SSC1 gene in pMBSC1.2, SF9 cells) (peptide-MHC)
chain: TMALQIPSLLLSAAVVVLMVLSSPRTLSISQAVHAAHAEINEAGRASGGGGSGGGGNSERHFVVQFKGECYYTNGTQRIRLVTRYIYNREEYVRYDSDVGEYRAVTELGRPDAEYWNSQPEILERTRAEVDTACRHNYEGPETSTSLRRLEQPNVAISLSRTEALNHHNTLVCSVTDFYPAKIKVRWFRNGQEETVGVSSTQLIRNGDWTFQVLVMLEMTPHQGEVYTCHVEHPSLKSPITVEWTSGGGGSGGGGSGGGGSGGGGSSSEDDIEADHVGFYGTTVYQSPGDIGQYTHEFDGDELFYVDLDKKKTVWRLPEFGQLILFEPQGGLQNIAAEKHNLGILTKRSNFTPATNEAPQATVFPKSPVLLGQPNTLICFVDNIFPPVINITWLRNSKSVTDGVYETSFLVNRDHSFHKLSYLTFIPSDDDIYDCKVEHWGLEEPVLKHWSRASHHHHHH
In assay [20], B4 displayed an IL-2 concentration in DO11 super, 39 ng/well immobilized scIA^d-OVA (extended dilution) of 0 U/ml; an IL-2 concentration in DO11 super, 78 ng/well immobilized sc IA^d-OVA of 45 U/ml; an IL-2 concentration in DO11 super, 78 ng/well immobilized scIA^d-OVA (extended dilution) of 17 U/ml; an IL-2 concentration in DO11 super, 156 ng/well immobilized sc IA^d-OVA of 100 U/ml. In assay [20], this molecule gave an IL-2 concentration in DO11 super, 156 ng/well immobilized scIA^d-OVA (extended dilution) of 24 U/ml; an IL-2 concentration in DO11 super, 312 ng/well immobilized sc IA^d-OVA of 109 U/ml; an IL-2 concentration in DO11 super, 312 ng/well immobilized scIA^d-OVA (extended dilution) of 35 U/ml; an IL-2 concentration in DO11 super, 625 ng/well immobilized sc IA^d-OVA of 116 U/ml. In addition, in assay [20], the IL-2 concentration in DO11 super, 625 ng/well immobilized scIA^d-OVA (extended dilution) is 38 U/ml; the IL-2 concentration in DO11 super, 1250 ng/well immobilized sc IA^d-OVA is 126 U/ml; the IL-2 concentration in DO11 super, 2500 ng/well immobilized sc IA^d-OVA was found to be 143 U/ml; the IL-4 concentration in DO11 super, 78 ng/well immobilized sc IA^d-OVA is 7 U/ml. In [20], this molecule came in with an IL-4 concentration in DO11 super, 156 ng/well immobilized sc IA^d-OVA of 10 U/ml; an IL-4 concentration in DO11 super, 312 ng/well immobilized sc IA^d-OVA of 16 U/ml; an IL-4 concentration in DO11 super, 625 ng/well immobilized sc IA^d-OVA of 15 U/ml; an IL-4 concentration in DO11 super, 1250 ng/well immobilized sc IA^d-OVA of 20 U/ml. In assay [20], this molecule gave an IL-4 concentration in DO11 super, 2500 ng/well immobilized sc IA^d-OVA of 23 U/ml; an IL-r [IL-4] concentration in DO11 super, 39 ng/well immobilized scIA^d-OVA (extended dilution) of 0 U/ml; an IL-r [IL-4] concentration in DO11 super, 78 ng/well immobilized scIA^d-OVA (extended dilution) of 0.8 U/ml; an IL-r [IL-4] concentration in DO11 super, 156 ng/well immobilized scIA^d-OVA (extended dilution) of 0.9 U/ml. In addition, in assay [20], the IL-r [IL-4] concentration in DO11 super, 312 ng/well immobilized scIA^d-OVA (extended dilution) was determined as 1.5 U/ml and the IL-r [IL-4] concentration in DO11 super, 625 ng/well immobilized scIA^d-OVA (extended dilution) is 2 U/ml.
